These results are taken from article PMC12700104.

In this assay the target is YxiD^CTD (C-terminal domain of YxiD, Pro428-Pro534), Bacillus subtilis 6633 (Bacillus subtilis 6633 (Bacillus subtilis subsp. spizizenii ATCC 6633)). Put plainly: ITC; 15 uM YxiD^CTD in the cell titrated with 150 uM YxxD in the syringe; 25°C; 20 mM HEPES pH 7.5, 150 mM NaCl; OneSite binding model. Background: In ITC the heat of successive injections is recorded.

B1: YxxD immunity protein, Bacillus subtilis 6633 (natural protein)
chain: MSYNFIKSNKENDFYPVNQSEIEEVEKNLNLKLPSELVNFYLEVGYGFIKGSEFNTNRILDPYSVRDFRLRINDFEFYPDIEIYDEFENDKLIFFEGSESALMSIELNDNNKNPIYYYDIQIATSLTEFLRKIEENDQYYLDLLDDE
The molecule B1 yielded a Kd of 9.4 nM, a dH of -10.2 kcal/mol and a stoichiometry N of 0.975 sites.

A word on the Kd: it is the free concentration of one partner at which half of the binding sites on the other are occupied at equilibrium, for simple one-to-one binding. A lower Kd goes with a tighter complex. As usually defined, the stoichiometry N is the number of molecules, sites or subunits per partner or assembly.
